Measured values reported in patent US20250263466A1 (VIR BIOTECHNOLOGY, published 2025).

What was measured:
[1] = target: T1, MERS-CoV S protein (London1/2012) expressed on ExpiCHO cells (MERS-CoV, UniProt K9N5Q8 18-1353); test: flow cytometry on ExpiCHO cells transfected with MERS-CoV S
T1 sequence: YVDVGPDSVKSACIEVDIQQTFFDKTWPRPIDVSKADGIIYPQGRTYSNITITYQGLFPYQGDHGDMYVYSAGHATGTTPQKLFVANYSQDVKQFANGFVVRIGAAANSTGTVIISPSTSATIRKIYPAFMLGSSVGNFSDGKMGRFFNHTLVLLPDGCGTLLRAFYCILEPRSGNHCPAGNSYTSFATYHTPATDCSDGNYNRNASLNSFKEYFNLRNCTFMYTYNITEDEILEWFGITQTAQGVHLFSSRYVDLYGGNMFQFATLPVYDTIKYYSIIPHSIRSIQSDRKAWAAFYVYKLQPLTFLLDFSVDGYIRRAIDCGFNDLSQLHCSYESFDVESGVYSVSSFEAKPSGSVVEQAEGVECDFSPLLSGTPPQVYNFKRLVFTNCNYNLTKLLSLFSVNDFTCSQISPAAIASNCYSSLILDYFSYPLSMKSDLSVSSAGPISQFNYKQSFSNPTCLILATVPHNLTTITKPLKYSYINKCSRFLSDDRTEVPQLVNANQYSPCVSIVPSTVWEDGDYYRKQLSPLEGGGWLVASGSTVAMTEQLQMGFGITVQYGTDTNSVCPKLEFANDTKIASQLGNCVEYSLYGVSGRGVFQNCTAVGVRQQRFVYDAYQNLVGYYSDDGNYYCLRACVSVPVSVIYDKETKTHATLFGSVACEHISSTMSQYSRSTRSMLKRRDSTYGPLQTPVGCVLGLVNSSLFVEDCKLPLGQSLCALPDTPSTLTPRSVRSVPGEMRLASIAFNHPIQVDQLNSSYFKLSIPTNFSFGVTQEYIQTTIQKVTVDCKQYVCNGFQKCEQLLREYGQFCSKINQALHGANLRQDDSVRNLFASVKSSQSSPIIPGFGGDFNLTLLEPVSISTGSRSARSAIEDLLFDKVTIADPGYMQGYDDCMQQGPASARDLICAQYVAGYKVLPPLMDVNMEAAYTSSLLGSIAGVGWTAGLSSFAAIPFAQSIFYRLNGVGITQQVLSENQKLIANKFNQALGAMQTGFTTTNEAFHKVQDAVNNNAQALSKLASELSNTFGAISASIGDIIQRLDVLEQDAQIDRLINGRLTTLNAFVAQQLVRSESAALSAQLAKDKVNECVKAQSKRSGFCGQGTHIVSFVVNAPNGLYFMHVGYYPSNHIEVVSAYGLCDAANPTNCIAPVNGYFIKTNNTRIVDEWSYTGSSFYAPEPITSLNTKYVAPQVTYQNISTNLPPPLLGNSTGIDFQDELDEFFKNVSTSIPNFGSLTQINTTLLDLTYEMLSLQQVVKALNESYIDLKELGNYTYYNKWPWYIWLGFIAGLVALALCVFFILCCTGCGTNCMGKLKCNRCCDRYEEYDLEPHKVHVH

[2] = target: SARS-CoV S protein (Urbani strain) expressed on ExpiCHO cells (SARS-CoV, UniProt P59594 14-1255); test: flow cytometry on ExpiCHO cells transfected with SARS-CoV S
[3] = target: SARS-CoV Spike S1 Subunit Protein (strain WH20) (SARS-CoV, UniProt P59594 14-667); test: Octet (BLI): inhibition of SARS-CoV S1 binding to immobilized hACE2

| Binder | binding result [1] | binding result [2] | IC50 [3] [µg/mL] |
| --- | --- | --- | --- |
| nCoV-20 mAb (antibody, V domains shown) VH: QVTLRESGPALVKPTQTLTLTCTFSGFSLTTTEMCVGWIRQPPGKALEWLALIDWDDDKYYSTSLRTRLTISKDTSKNQVVLTMTNMDPVDTATYYCARMFGRKRLAPTGFDPWGQGTLVTVSS VL: DIVMTQSPLSLPVTPGEPASISCRSSQSLLHSNGKNYLDWYLQKPGQSPQLLICLGSYRASGVPDRFSGSGSGTDFTLKISRVEAEDVGVYYCMQALQTPWTFGQGTKVEIK | no binding (tested: 10 µg/ml) | binds | – |
| nCoV-10 mAb (antibody, V domains shown) VH: QVQLVESGGGVVQPGRSLRLSCAASGFTFSNYGMHWVRQAPGKGLEWLAVISSDGRIKFYADSVKGRFTMSRDSSKNTLYLQMNSLRAEDTAVYYCAKDRFQFARSWYGDYFDYWGQGTQVTVSS VL: AVAMTQSPLSLPVTLGQPASISCRSNQSLVYSDGNIYLNWFQQRPGQSPMRLIYRVSNRDSGVPDRFSGSGSGTDFTLKISRVEAEDVGIYYCMQGTHWPPTFGGGTKVEIK | no binding (tested: 10 µg/ml) | – | 2.69 |
| nCoV-17 mAb (antibody, V domains shown) VH: QVQLVESGGGVVQPGRSLRLSCAASGFTFSSYAIHWVRQAPGKGLEWLAVISFDGRHKYYADSVKGRFTISRDNSKNTVYLQMNSLRVEDTAVYSCARDIRHLIVVVSDMDVWGQGTTVTVSS VL: DVVMTQSPLSLPVTLGQPASISCRSSQSLVNSDGDTSLNWFQQRPGQSPRRLIYKVSNRDSGVPDRISGSGSGTDFTLKISRVEAEDVGVYYCMQGTHWPPTFGQGTKLEIK | no binding (tested: 10 µg/ml) | binds | – |
| nCoV-1 mAb (antibody, V domains shown) VH: QAQLVESGGALVQPGRSLRLSCAASGFTFRNYAMHWVRQAPATGLQWLAVITSDGRNKFYADSVKGRFTISREDSKNTLYLQMDSLRGEDTAVYYCVTQRDNSRDYFPHYFHDMDVWGQGTTVAVSS VL: DVVLTQSPLSLPVTLGQPASISCRSSQSLVYSDGDTYLNWFQQRPGQSPRRLIYQVSNRDSGVPDRFSGSGSGTDFTLKISRVEAEDVGVYYCMQGSHWPPTFGQGTKVEIK | no binding (tested: 10 µg/ml) | – | 1.13 |
| nCoV-19 mAb (antibody, V domains shown) VH: QVKLVESGGGVVQPGRSLRLSCAASGFTFSSNAMHWVRQTPGKGLEWVALISYDERNKYYAESVKGRFTISRDNSKNTLYLQMNSLRHEDTAVYYCARDLQMRVVVVSNFDYWGQGTLVTVSS VL: DVVMTQSPLSLPVTLGQPASISCRSSQSLVYSDGNTYLNWFQQRPGQSPRRLIYEVSNWDSGVPDRFSGSGSGTDFTLKISRVEAEDVGVYYCMQATHWPPTFGQGTKLEIK | no binding (tested: 10 µg/ml) | binds | – |
| nCoV-18 mAb (antibody, V domains shown) VH: QVQLVQSGAEVRQPGTSVKVSCKASGYTFMNNDITWVRQAPGQVLQWMGWIRPSNGNTNYAQKFQGRVTLTTDTSTNTAHMELRSLKSDDTAVYYCARQSHSTRGGWHFSPWGQGTLVTVSS VL: DIQMTQSPSSLSASVGDRVTITCRPSQPISYFLNWYQQTPGKAPKLLIYAASSLQSGVPSRFSGSGSGTDFTLTISSLQPEDSATYYCQQSYSVPYTFGQGTKLEIK | no binding (tested: 10 µg/ml) | binds | – |
